The chains are these.
B1: C19orf51 (parent)
chain: FAPQTGARPSETFARFCKSQESAL
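Further: lentivirally expressed fusions sorted by FACS into six bins by GFP to DsRed ratio, PSI derived from sequencing read proportions per bin multiplied by bin number.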

The data set covers variants of B1. Description: protein stability index of a GFP-peptide fusion (GPS, HEK-293T) (PSI 1-6); higher = more stable. Conditions: c terminus: a fixed tail appended.
On to FAPQTVARPSETFARFCKSQESAL [G6V], for which the protein stability index is 2.13.

Consider FAPQTKARPSETFARFCKSQESAL [G6K], for which the protein stability index stood at 2.51.

As to FAPQTEARPSETFARFCKSQESAL [G6E], the protein stability index was found to be 1.67.

For the variant FAPQTCARPSETFARFCKSQESAL [G6C], the protein stability index turned out to be 1.06.

For FAPQTIARPSETFARFCKSQESAL [G6I], the protein stability index came to 2.25.

In the case of FAPQTQARPSETFARFCKSQESAL [G6Q], the protein stability index came out at 1.36.

For the variant FAPQTAARPSETFARFCKSQESAL [G6A], the protein stability index stood at 2.12.

For the variant FAPQTWARPSETFARFCKSQESAL [G6W], the protein stability index was 2.83.

Take FAPQTPARPSETFARFCKSQESAL [G6P]: the protein stability index came out at 1.95.

Turning to FAKQTGARPSETFARFCKSQESAL [P3K], the protein stability index is 2.51.

Turning to FAVQTGARPSETFARFCKSQESAL [P3V], the protein stability index stood at 1.95.

On to FANQTGARPSETFARFCKSQESAL [P3N], for which the protein stability index came to 1.96.

Take FASQTGARPSETFARFCKSQESAL [P3S]: the protein stability index turned out to be 1.61.

With FAAQTGARPSETFARFCKSQESAL [P3A], the protein stability index amounted to 1.05.

As to FAIQTGARPSETFARFCKSQESAL [P3I], the protein stability index amounted to 1.72.

Regarding FAQQTGARPSETFARFCKSQESAL [P3Q], the protein stability index was 2.72.

As to FALQTGARPSETFARFCKSQESAL [P3L], the protein stability index turned out to be 1.5.

Consider FACQTGARPSETFARFCKSQESAL [P3C], for which the protein stability index was determined as 1.62.

Take FADQTGARPSETFARFCKSQESAL [P3D]: the protein stability index worked out at 2.79.

With FATQTGARPSETFARFCKSQESAL [P3T], the protein stability index worked out at 1.98.

Turning to FAEQTGARPSETFARFCKSQESAL [P3E], the protein stability index was found to be 2.64.

Take FAFQTGARPSETFARFCKSQESAL [P3F]: the protein stability index stood at 1.7.

Take FAWQTGARPSETFARFCKSQESAL [P3W]: the protein stability index was 2.66.

As to FAPQTGARDSETFARFCKSQESAL [P9D], the protein stability index came to 1.23.

Regarding FAPQTGARESETFARFCKSQESAL [P9E], the protein stability index was 1.18.

On to FAPQTGARLSETFARFCKSQESAL [P9L], for which the protein stability index was found to be 1.06.

FAPQTGARMSETFARFCKSQESAL [P9M]: the protein stability index turned out to be 2.92.

With FAPQTGARISETFARFCKSQESAL [P9I], the protein stability index worked out at 2.25.

On to FAPQTGARCSETFARFCKSQESAL [P9C], for which the protein stability index is 3.58.

As for FAPQTGARKSETFARFCKSQESAL [P9K], the protein stability index stood at 2.47.

With FAPQTGARGSETFARFCKSQESAL [P9G], the protein stability index came to 2.57.

In the case of FAPQTGARHSETFARFCKSQESAL [P9H], the protein stability index is 2.82.

GAPQTGARPSETFARFCKSQESAL [F1G]: the protein stability index is 4.63.

For WAPQTGARPSETFARFCKSQESAL [F1W], the protein stability index came out at 2.58.

In the case of QAPQTGARPSETFARFCKSQESAL [F1Q], the protein stability index was determined as 3.77.

With VAPQTGARPSETFARFCKSQESAL [F1V], the protein stability index came out at 3.3.

Turning to NAPQTGARPSETFARFCKSQESAL [F1N], the protein stability index came out at 3.87.

YAPQTGARPSETFARFCKSQESAL [F1Y]: the protein stability index amounted to 4.05.

With PAPQTGARPSETFARFCKSQESAL [F1P], the protein stability index is 3.71.

On to MAPQTGARPSETFARFCKSQESAL [F1M], for which the protein stability index is 3.59.

For the variant EAPQTGARPSETFARFCKSQESAL [F1E], the protein stability index is 4.14.

IAPQTGARPSETFARFCKSQESAL [F1I]: the protein stability index is 2.65.

Regarding TAPQTGARPSETFARFCKSQESAL [F1T], the protein stability index is 2.49.

With DAPQTGARPSETFARFCKSQESAL [F1D], the protein stability index came to 4.78.

Turning to KAPQTGARPSETFARFCKSQESAL [F1K], the protein stability index stood at 3.54.

For SAPQTGARPSETFARFCKSQESAL [F1S], the protein stability index worked out at 3.79.

Turning to CAPQTGARPSETFARFCKSQESAL [F1C], the protein stability index is 1.38.

Take FAPQTGHRPSETFARFCKSQESAL [A7H]: the protein stability index was 3.46.

Regarding FAPQTGMRPSETFARFCKSQESAL [A7M], the protein stability index came to 1.77.

Take FAPQTGIRPSETFARFCKSQESAL [A7I]: the protein stability index came out at 1.79.

For FAPQTGPRPSETFARFCKSQESAL [A7P], the protein stability index came to 2.07.

Consider FAPQTGDRPSETFARFCKSQESAL [A7D], for which the protein stability index was determined as 1.59.

As to FAPQTGTRPSETFARFCKSQESAL [A7T], the protein stability index stood at 2.69.

On to FAPQTGKRPSETFARFCKSQESAL [A7K], for which the protein stability index worked out at 1.53.

Turning to FAPQTGFRPSETFARFCKSQESAL [A7F], the protein stability index was determined as 2.41.

Consider FAPQTGQRPSETFARFCKSQESAL [A7Q], for which the protein stability index is 1.31.

In the case of FAPQTGLRPSETFARFCKSQESAL [A7L], the protein stability index was 2.

For the variant FAPQTGERPSETFARFCKSQESAL [A7E], the protein stability index is 1.77.

In the case of FAPQTGCRPSETFARFCKSQESAL [A7C], the protein stability index came to 2.92.

For FAPQGGARPSETFARFCKSQESAL [T5G], the protein stability index was 3.11.

On to FAPQAGARPSETFARFCKSQESAL [T5A], for which the protein stability index stood at 2.07.

For the variant FAPQDGARPSETFARFCKSQESAL [T5D], the protein stability index amounted to 2.37.

For the variant FAPQQGARPSETFARFCKSQESAL [T5Q], the protein stability index worked out at 2.47.

FAPQPGARPSETFARFCKSQESAL [T5P]: the protein stability index was 1.81.

FAPQYGARPSETFARFCKSQESAL [T5Y]: the protein stability index is 2.78.

For the variant FAPQEGARPSETFARFCKSQESAL [T5E], the protein stability index was 2.42.

On to FAPQNGARPSETFARFCKSQESAL [T5N], for which the protein stability index is 2.01.

Consider FAPMTGARPSETFARFCKSQESAL [Q4M], for which the protein stability index was found to be 1.65.

As to FAPYTGARPSETFARFCKSQESAL [Q4Y], the protein stability index turned out to be 2.21.

Regarding FAPDTGARPSETFARFCKSQESAL [Q4D], the protein stability index was determined as 2.

On to FAPPTGARPSETFARFCKSQESAL [Q4P], for which the protein stability index came to 1.28.

In the case of FAPLTGARPSETFARFCKSQESAL [Q4L], the protein stability index was determined as 4.02.

On to FAPTTGARPSETFARFCKSQESAL [Q4T], for which the protein stability index is 2.06.

Regarding FAPSTGARPSETFARFCKSQESAL [Q4S], the protein stability index came to 2.6.

FAPCTGARPSETFARFCKSQESAL [Q4C]: the protein stability index was 2.85.

Take FAPFTGARPSETFARFCKSQESAL [Q4F]: the protein stability index was determined as 1.98.

Consider FAPKTGARPSETFARFCKSQESAL [Q4K], for which the protein stability index came to 1.99.

As to FAPRTGARPSETFARFCKSQESAL [Q4R], the protein stability index stood at 1.94.

Turning to FAPITGARPSETFARFCKSQESAL [Q4I], the protein stability index was 2.27.

Regarding FAPNTGARPSETFARFCKSQESAL [Q4N], the protein stability index came out at 1.69.

On to FAPHTGARPSETFARFCKSQESAL [Q4H], for which the protein stability index came to 2.21.

As to FAPETGARPSETFARFCKSQESAL [Q4E], the protein stability index stood at 1.84.

Turning to FMPQTGARPSETFARFCKSQESAL [A2M], the protein stability index amounted to 1.45.

Regarding FWPQTGARPSETFARFCKSQESAL [A2W], the protein stability index is 2.02.

As to FHPQTGARPSETFARFCKSQESAL [A2H], the protein stability index turned out to be 1.

Regarding FPPQTGARPSETFARFCKSQESAL [A2P], the protein stability index came out at 2.16.

With FTPQTGARPSETFARFCKSQESAL [A2T], the protein stability index was 1.61.

Take FFPQTGARPSETFARFCKSQESAL [A2F]: the protein stability index amounted to 1.88.

For the variant FSPQTGARPSETFARFCKSQESAL [A2S], the protein stability index came to 1.9.

For the variant FDPQTGARPSETFARFCKSQESAL [A2D], the protein stability index stood at 3.07.

As to FKPQTGARPSETFARFCKSQESAL [A2K], the protein stability index was 3.17.

Consider FGPQTGARPSETFARFCKSQESAL [A2G], for which the protein stability index is 2.95.

On to FYPQTGARPSETFARFCKSQESAL [A2Y], for which the protein stability index worked out at 2.59.

In the case of FNPQTGARPSETFARFCKSQESAL [A2N], the protein stability index was 1.04.

Values taken from the supplement of paper PMC10567573.
